Results published in patent publication US20230056992A1 (AGGAMIN, published 2023).

What was measured:
[1] = biological target: T1, purified recombinant human sEng (human Endoglin ectodomain residues 26 to 586 with C-terminal 6x His tag, … (human, UniProt P17813 26-586)); test: 1 mL column, 0.2 mg MAb per mL Sepharose beads, flow rates 0.25-2.00 mL/min; input vs flow-through
T1 construct: range 26-586; also called spiked sEng; recombinant human sEng (amino acid residues 26-586)
T1 sequence: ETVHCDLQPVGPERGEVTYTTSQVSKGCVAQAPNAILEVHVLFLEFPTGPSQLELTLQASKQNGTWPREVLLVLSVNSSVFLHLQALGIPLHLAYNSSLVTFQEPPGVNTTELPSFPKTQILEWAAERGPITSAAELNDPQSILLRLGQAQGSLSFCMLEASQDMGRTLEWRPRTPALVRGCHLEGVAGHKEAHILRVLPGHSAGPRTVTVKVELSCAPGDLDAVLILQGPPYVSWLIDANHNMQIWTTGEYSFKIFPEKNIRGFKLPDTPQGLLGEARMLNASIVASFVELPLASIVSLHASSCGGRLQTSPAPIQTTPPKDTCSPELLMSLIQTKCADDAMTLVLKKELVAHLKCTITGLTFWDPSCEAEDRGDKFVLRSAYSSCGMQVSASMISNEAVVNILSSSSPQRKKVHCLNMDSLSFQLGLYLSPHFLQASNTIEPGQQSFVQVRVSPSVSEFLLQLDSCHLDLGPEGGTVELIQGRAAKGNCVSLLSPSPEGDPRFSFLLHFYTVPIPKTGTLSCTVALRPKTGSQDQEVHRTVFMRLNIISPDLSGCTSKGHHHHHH
Method: A 1-ml cENG10 device column was evaluated for depletion of spiked sEng in horse serum. For each column, 0.2 mg cENG10 or AG10B MAb was covalently conjugated to 1 mL of CNBr-activated Sepharose 4FF beads for 0.2 mg per mL beads ratio. For each test, 10 mL of serum containing 60 ng/mL of sEng, median concentration in severe pre-eclampsia patients, was applied for one cycle over the column. The first 1 ml containing pre-equilibration buffer was not collected in the flow-through (FT) fraction and the last 1 mL of input remaining in column was chased with 1 CV of PBS buffer and pooled into the FT fraction. The % sEng depletion was calculated by dividing the difference in concentration between input and FT by input concentration: […]

[2] = biological target: T2, endogenous sEng in pre-eclamptic patient serum (human, UniProt P17813 26-586); test: 0.1 mL column of antibody-conjugated beads, pre-eclamptic patient serum
T2 construct: Native protein in patient serum; the isoform or cleavage product is not defined; also called circulating sEng
T2 sequence (looked up): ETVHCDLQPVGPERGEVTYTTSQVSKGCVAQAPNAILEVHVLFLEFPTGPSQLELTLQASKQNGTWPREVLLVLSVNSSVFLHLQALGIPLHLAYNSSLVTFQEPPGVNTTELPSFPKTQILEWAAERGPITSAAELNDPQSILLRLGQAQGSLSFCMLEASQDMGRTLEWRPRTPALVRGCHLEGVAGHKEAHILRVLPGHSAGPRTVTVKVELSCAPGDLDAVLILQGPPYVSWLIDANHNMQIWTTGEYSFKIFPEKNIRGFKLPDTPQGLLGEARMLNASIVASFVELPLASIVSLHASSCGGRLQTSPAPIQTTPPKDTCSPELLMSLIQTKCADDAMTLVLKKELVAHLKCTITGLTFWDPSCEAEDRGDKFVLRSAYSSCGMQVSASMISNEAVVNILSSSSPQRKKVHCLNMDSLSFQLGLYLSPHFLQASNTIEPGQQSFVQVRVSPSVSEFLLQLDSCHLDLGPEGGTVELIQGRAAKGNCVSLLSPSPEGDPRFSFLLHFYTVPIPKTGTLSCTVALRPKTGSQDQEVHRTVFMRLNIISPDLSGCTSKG
Method: (§1) Circulating sEng and sFlt-1 proteins are elevated in pre-eclampsia patients and are postulated to be major causal factors of disease onset and progression. To test whether a cENG10/AG10B dual device is capable of removing these endogenous sEng and sFlt-1 proteins from patient serum, micro-scale 0.1 mL columns conjugated with cENG10, AG10B, or both cENG10 and AG10B MAbs were prepared. cENG10 column specifically removed>90% of endogenous sEng in pre-eclamptic serum but not endogenous sFlt-1, and the AG10B column specifically removed>90% of endogenous sFlt-1 in pre-eclamptic serum but not endogenous sEng. The cENG10/AG10B dual device column, in which a mixture of the two antibodies at 1 mg each per mL beads were conjugated simultaneously, removed>90% of both sEng and sFlt-1 proteins.

[3] = biological target: T3, endogenous sFlt-1 in pre-eclamptic patient serum (human, UniProt P17948-2 27-687, limits assumed); test: as above
T3 construct: Native protein in patient serum; the isoform is not defined; also called circulating sFlt-1
Method: as §1

T3 sequence (P17948 other isoform, or with tags, fused parts or gaps limits assumed): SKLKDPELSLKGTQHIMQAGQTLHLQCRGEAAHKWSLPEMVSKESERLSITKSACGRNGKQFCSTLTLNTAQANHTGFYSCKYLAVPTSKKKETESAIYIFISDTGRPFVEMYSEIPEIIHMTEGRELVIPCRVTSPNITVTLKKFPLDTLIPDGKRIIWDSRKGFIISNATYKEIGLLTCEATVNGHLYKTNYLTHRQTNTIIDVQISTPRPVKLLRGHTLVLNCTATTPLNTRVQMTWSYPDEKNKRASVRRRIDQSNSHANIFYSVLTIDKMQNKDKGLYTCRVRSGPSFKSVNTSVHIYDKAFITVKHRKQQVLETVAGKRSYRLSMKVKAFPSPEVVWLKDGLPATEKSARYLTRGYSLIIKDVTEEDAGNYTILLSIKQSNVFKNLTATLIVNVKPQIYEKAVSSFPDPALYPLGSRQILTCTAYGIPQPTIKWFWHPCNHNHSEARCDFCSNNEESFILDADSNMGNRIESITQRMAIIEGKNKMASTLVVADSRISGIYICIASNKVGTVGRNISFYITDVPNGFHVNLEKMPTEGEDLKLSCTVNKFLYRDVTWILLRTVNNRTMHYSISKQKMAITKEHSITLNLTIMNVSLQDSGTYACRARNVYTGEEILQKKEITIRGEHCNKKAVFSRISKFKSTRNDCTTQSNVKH

B1: chimeric anti-sFlt-1 antibody AG10B (antibody, V domains shown)
VH: QVQLQQSGPELVKPGASVKMSCKASGYTFTDYVISWVKQRTGQGLEWIGEIYPGSGSIYYNEKFKGKATLTADTSSNTAYMQLSSLTFEDSAVIFCARGHYYGYFDYWGQGTTLTVSS
VL: DIVMTQSHKFMSTSVGDRVSITCKASQDVTITVAWYQQKPGQSPKLLIYSASYRYTGVPDRFTGSGSGTDFTFTISSVQAEDLAVYYCQQHYTTPWTFGGGTKLEIKR
notes: Chimeric mouse/human IgG1 kappa with N298Q; It served as the negative control for sEng depletion; also called AGB10; AB10B
[1]
  binding result: no binding (tested: 60 ng/mL sEng in 10 mL horse serum)
[2]
  binding result: no binding

B2: chimeric anti-sEng antibody cENG10 (antibody, human IgG1, kappa, N297Q, V domains shown)
VH: EVQLEQSGPEVVKPGTSVKISCKTSGYTITEHTLHWIKQNQGKSLEWIGGINFDNGGTTYRQKFKDKATLTVDKSSSTAFMELRSLTSDDSAVYFCARRAYYYGSAFDYWGQGTTLTVSS
VL: ENVLTQSPAIMSASLGEKVTMTCRASSSVNYVYWYQQKSDASPKLWIYYTSNLAPGVPARFSGSGSGNSYSLTISSMEGEDAATYYCQQFISFPYTFGGGTKLEIKR
notes: Chimeric mouse/human IgG1 kappa with N300Q; also called anti-human sEng MAb; cENG10 column
[3]
  binding result: no binding
